Columns and labels:
Test in all cases: cell_activity
[1] = tested on: IL-1-FokI C3H F2 HIRTGC (pDAB4346/pDAB4356) F2 zinc coordinating region HIRTGC (engineered); conditions: pDAB4346, tobacco BY2-380 intrachromosomal recombination; pDAB4356 also active in interchromosomal HR
[2] = tested on: IL-1-FokI C3H F4 HTKIC (pDAB4342) F4 zinc coordinating region HTKIC (engineered); conditions: pDAB4342, tobacco BY2-380
[3] = tested on: IL-1-FokI C3H F4 HTKRCGGG (pDAB4343) F4 zinc coordinating region HTKRCGGG (engineered); conditions: pDAB4343, tobacco BY2-380
[4] = tested on: IL-1-FokI C3H F4 HAQRCG (pDAB4344) F4 zinc coordinating region HAQRCG (engineered); conditions: pDAB4344, tobacco BY2-380
[5] = tested on: IL-1-FokI C2H2 (pDAB4341/pDAB4323) (engineered); conditions: pDAB4341, tobacco BY2-380; pDAB4323 (non-plant codon FokI) 5.53

## IL-1-L0-FokI site, 4 tandem repeats
[1]
  activity (GFP expression): 9.5
[2]
  activity (GFP expression): 0.25
[3]
  activity (GFP expression): 7.57
[4]
  activity (GFP expression): 4.39
[5]
  activity (GFP expression): 6.37
